# Results reported in patent publication EP4707393A1, “DOUBLE-STRANDED SIRNA, CONJUGATE THEREOF AND USE THEREOF” (CMS Research & Development Pte. Ltd., priority 2023, dated 2024).
# pEC50: −log10 of the molar value.
# Tests used:
# [1] = test system: human LPA gene (Genbank number: NM_005577.4); assay: Inhibitory activity against LPA mRNA, psiCHECK-2 dual-luciferase reporter vector in Huh7 cells; format: cell-based; conditions: Huh7 cells transfected with LPA_psiCHECK-2 plasmid, RNAiMAX transfection
# Outline: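 Huh7 cells transfected with psiCHECK-2 carrying human LPA, then treated next day with compounds (3 concentrations) delivered by RNAiMAX. Dual-Glo readout of firefly and Renilla luciferase per well. Percent inhibition calculated from the reporter ratio relative to the RNAiMAX control.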
# hPBMCs = assay: Immunogenicity test in hPBMCs (IL-6 and TNF-α ELISA of supernatant); format: cell-based, human; conditions: 18-20 h
# Outline: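 siRNA conjugates, three-fold serially diluted in water then 10-fold in 1640 medium (5.0% water final), were added in duplicate to PBMCs at 1.6 × 10^6/mL and incubated 18-20 h at 37 °C. TNF-α and IL-6 in supernatant were measured by ELISA; LPS served as positive control.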
substance,measurement,setting,value
"Z42: siRNA conjugate: sense SEQ ID NO:49, ligand D01 at 3' end of sense strand, antisense SEQ ID NO:80 (sense CAGCCCCTTATTGTTATACGA; antisense NCGTATNACAATAAGGGGCNGTT; ligand D01 at sense 3' end; listed as RNA; modified_base 1: mod_base = OTHER; note = 2'-O-methylcytidine; modified_base 2: mod_base = OTHER; note = 2'-O-methyladenosine; modified_base 3: mod_base = OTHER; note = 2'-O-methylguanosine; modified_base 4..7: mod_base = OTHER; note = 2'-O-me; note = n is B33; note = 2'-deoxycytidine; modified_base 4: mod_base = OTHER; note = 2'-O-methyluridine; m)",pEC50,[1],9.51
same,IL-6,"hPBMCs; donor 1 hPBMCs, 5 µg/mL",1298.3 pg/mL
same,TNF alpha,"hPBMCs; donor 1 hPBMCs, 5 µg/mL",35.8 pg/mL
same,IL-6,"hPBMCs; donor 1 hPBMCs, 15 µg/mL",1406.8 pg/mL
same,TNF alpha,"hPBMCs; donor 1 hPBMCs, 15 µg/mL",34.8 pg/mL
same,IL-6,"hPBMCs; donor 1 hPBMCs, 45 µg/mL",1457.0 pg/mL
same,TNF alpha,"hPBMCs; donor 1 hPBMCs, 45 µg/mL",39.4 pg/mL
"Z46: siRNA conjugate: sense SEQ ID NO:43, ligand D01 at 3' end of sense strand, antisense SEQ ID NO:66 (sense CAGCCCCTTATTGTTANACGA; antisense TCTCGTATNACAATAAGGGGCTG; ligand D01 at sense 3' end; listed as RNA; modified_base 1: mod_base = OTHER; note = 2'-O-methylcytidine; modified_base 2: mod_base = OTHER; note = 2'-O-methyladenosine; modified_base 3: mod_base = OTHER; note = 2'-O-methylguanosine; modified_base 4..7: mod_base = OTHER; note = 2'-O-me; note = 2'-O-methyluridine; modified_base 4: mod_base = OTHER; note = 2'-fluorocytidine; modified_base 5: mod_base = OTHER; note = 2'-O-methylg)",pEC50,[1],9.51
same,IL-6,"hPBMCs; donor 2 hPBMCs, 5 µg/mL",15.0 pg/mL
same,TNF alpha,"hPBMCs; donor 2 hPBMCs, 5 µg/mL",8.1 pg/mL
same,IL-6,"hPBMCs; donor 2 hPBMCs, 15 µg/mL",88.8 pg/mL
same,TNF alpha,"hPBMCs; donor 2 hPBMCs, 15 µg/mL",22.8 pg/mL
same,IL-6,"hPBMCs; donor 2 hPBMCs, 45 µg/mL",9.3 pg/mL
same,TNF alpha,"hPBMCs; donor 2 hPBMCs, 45 µg/mL",10.2 pg/mL
